± gives the standard error. For some assays here: Fewer inactive variants are shown than the library holds.
B1: glmS ribozyme (parent)
chain: AUAAAAGCGCCAGAACUACAGAAAUGUAGUUGACGAGGAGGAGGUUUAUCGAAUUUUCGGCGGAUGCCUCCAAA

How the values were obtained:
Settings in all cases: with glucosamine-6-phosphate
glucosamine-6-phosphate [1] = variants of: B1; test: kcat; higher = faster cleavage; RNA array
Method in brief: (§1)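 The measurements used barcoded ribozyme variants on sequenced MiSeq chips, transcribed in situ by E. coli RNA polymerase and tracked at 37 °C with a hybridised Cy3 probe. Glucosamine-6-phosphate, 40 μM to 10 mM in HEPES/KCl/Mg(OAc)2 buffer, was flowed in while tiles were imaged over ~14 h. Baseline-normalised signals, also normalised to non-cleaving reference variants, gave per-tile medians that were fit to one- or two-exponential decays for kobs. kcat and KM resulted from weighted Michaelis–Menten fits across concentrations.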

glucosamine-6-phosphate [2] = variants of: B1; test: KM; higher = weaker cofactor use; RNA array
Method in brief: as §1

glucosamine-6-phosphate [3] = variants of: B1; test: self-cleavage kobs at 40 uM GlcN6P; higher = faster cleavage; RNA array
Method in brief: as §1

glucosamine-6-phosphate [4] = variants of: B1; test: self-cleavage kobs at 160 uM GlcN6P; higher = faster cleavage; RNA array
Method in brief: as §1

glucosamine-6-phosphate [5] = variants of: B1; test: self-cleavage kobs at 640 uM GlcN6P; higher = faster cleavage; RNA array
Method in brief: as §1

glucosamine-6-phosphate [6] = variants of: B1; test: self-cleavage kobs at 10000 uM GlcN6P; higher = faster cleavage; RNA array
Method in brief: as §1

glucosamine-6-phosphate [7] = variants of: B1; test: self-cleavage kobs at 2500 uM GlcN6P; higher = faster cleavage; RNA array
Method in brief: as §1

| Variant | kcat (glucosamine-6-phosphate [1]) | KM (glucosamine-6-phosphate [2]) | self-cleavage kobs at 40 uM GlcN6P (glucosamine-6-phosphate [3]) | self-cleavage kobs at 160 uM GlcN6P (glucosamine-6-phosphate [4]) | self-cleavage kobs at 640 uM GlcN6P (glucosamine-6-phosphate [5]) | self-cleavage kobs at 10000 uM GlcN6P (glucosamine-6-phosphate [6]) | self-cleavage kobs at 2500 uM GlcN6P (glucosamine-6-phosphate [7]) |
| --- | --- | --- | --- | --- | --- | --- | --- |
| U54A A64G | 0.0348 ± 0.011 s⁻¹ | 2310 ± 830 µM | 0.00058 ± 7.4e-05 s⁻¹ | 0.00313 ± 0.0007 s⁻¹ | 0.00654 ± 0.0014 s⁻¹ | 0.029 ± 0.0072 s⁻¹ |  |
| G13C C16U | 0.0002194 ± 1.1e-06 s⁻¹ | 4190 ± 58 µM |  |  |  | 0.000155 ± 1.9e-05 s⁻¹ | 8.19e-05 ± 2.5e-05 s⁻¹ |
| U30C C71A | 9.39e-05 ± 4.7e-06 s⁻¹ | 1300 ± 180 µM |  |  | 3.17e-05 ± 8.4e-06 s⁻¹ | 8.36e-05 ± 1.3e-05 s⁻¹ | 6.1e-05 ± 9.3e-06 s⁻¹ |
| U56A U57C | 0.00014 ± 3.4e-06 s⁻¹ | 2030 ± 160 µM | < 1e-05 s⁻¹ |  |  | 0.000115 ± 1.5e-05 s⁻¹ | 7.84e-05 ± 1.5e-05 s⁻¹ |
| G41A U46A | 0.000569 ± 0.0001 s⁻¹ | 1480 ± 630 µM | 3.02e-05 ± 1.4e-05 s⁻¹ | 4.5e-05 ± 1.2e-05 s⁻¹ | 0.000168 ± 4.6e-05 s⁻¹ | 0.000462 ± 4.9e-05 s⁻¹ | 0.000531 ± 7.8e-05 s⁻¹ |
| G32C A53C | 3.63e-05 ± 2.4e-06 s⁻¹ |  | < 1e-05 s⁻¹ | < 1e-05 s⁻¹ | < 1e-05 s⁻¹ |  |  |
| U47G U57G | 6.2e-05 ± 9.2e-06 s⁻¹ |  |  |  |  | 5.61e-05 ± 1.2e-05 s⁻¹ | 6.68e-05 ± 2.2e-05 s⁻¹ |
| A12U A36U | 2.03e-05 ± 6.7e-07 s⁻¹ | 2080 ± 230 µM |  |  |  |  |  |
| A12C U30A | 0.00751 ± 0.0021 s⁻¹ | 7100 ± 2600 µM | 5.95e-05 ± 1.5e-05 s⁻¹ | 0.000144 ± 3e-05 s⁻¹ | 0.000745 ± 0.0002 s⁻¹ | 0.00447 ± 0.00074 s⁻¹ | 0.0017 ± 0.00056 s⁻¹ |
| U47C U65G | 0.00435 ± 0.0005 s⁻¹ | 3840 ± 610 µM | 4.89e-05 ± 1.1e-05 s⁻¹ |  | 0.000565 ± 0.00011 s⁻¹ | 0.00312 ± 0.0006 s⁻¹ | 0.00189 ± 0.00047 s⁻¹ |
| U46C U65G | 0.000138 ± 2.3e-05 s⁻¹ |  |  |  | 2.77e-05 ± 1.3e-05 s⁻¹ | 0.000113 ± 1.5e-05 s⁻¹ | 0.000117 ± 2.4e-05 s⁻¹ |
| A64U C71U | 0.000158 ± 5.9e-05 s⁻¹ |  |  |  | 3.94e-05 ± 1.3e-05 s⁻¹ | 0.000112 ± 1.6e-05 s⁻¹ | 3.79e-05 ± 1.6e-05 s⁻¹ |
| A39C C68U | 0.000495 ± 6.5e-05 s⁻¹ | 1180 ± 300 µM | 2.73e-05 ± 7e-06 s⁻¹ | 6.25e-05 ± 1.3e-05 s⁻¹ | 0.000159 ± 1.7e-05 s⁻¹ | 0.000445 ± 4.9e-05 s⁻¹ | 0.000367 ± 5.1e-05 s⁻¹ |
| A6U U31C | 3.19e-05 ± 7.8e-07 s⁻¹ | 647 ± 96 µM |  |  |  | 2.97e-05 ± 1.2e-05 s⁻¹ |  |
| A53G U55C | 0.0183 ± 0.0057 s⁻¹ | 1230 ± 510 µM | 0.000669 ± 7.9e-05 s⁻¹ | 0.00157 ± 0.00027 s⁻¹ | 0.00872 ± 0.0013 s⁻¹ | 0.0167 ± 0.0032 s⁻¹ | 0.0106 ± 0.0024 s⁻¹ |

Source: the supplement of paper PMC7125110
